Measurements published in US20200316233A1 (BOARD OF REGENTS OF THE UNIVERISTY OF NEBRASKA, published 2020).
Square brackets hold non-standard residues; d marks the D form. Ends that are not written are not given here.

Key:
[1] = molecular target: T1, neurotensin receptor-1 (human, UniProt P30989 1-418); test: competitive binding to NTR1
T1 construct: whole, on cells; Endogenous receptor on the NTSR1-positive HT-29 human colon cancer cell line; also called NTR1; NTSR1
Procedure: (§1) The IC₅₀ for the unlabeled conjugates binding to the neurotensin receptors was determined using the HT-29 human colon cancer cell line. In these studies, ¹⁷⁷Lu-N1 (¹⁷⁷Lu-DOTA-β-Ala-[N-α-Me⁸, Dmt¹¹, Tle¹²]NT(6-13)), which was synthesized according to published methods (Jia, et al. (2015) Nucl. Med. Biol., 42:816), served as the competitive radioligand for comparing the relative binding affinities of the conjugates. […] At the end of the incubation, the cells were centrifuged, aspirated, and washed with fresh medium (5×500 μL). The cell-associated radioactivity was measured using gamma counter and the IC₅₀ values determined by nonlinear regression using GraphPad Prism 5. All measurements were in biological triplicate.

[2] = molecular target: T1, neurotensin receptor-1; test: competition with 177Lu-N1 on HT-29 cells
Procedure: as §1

T1 sequence (P30989 whole entry): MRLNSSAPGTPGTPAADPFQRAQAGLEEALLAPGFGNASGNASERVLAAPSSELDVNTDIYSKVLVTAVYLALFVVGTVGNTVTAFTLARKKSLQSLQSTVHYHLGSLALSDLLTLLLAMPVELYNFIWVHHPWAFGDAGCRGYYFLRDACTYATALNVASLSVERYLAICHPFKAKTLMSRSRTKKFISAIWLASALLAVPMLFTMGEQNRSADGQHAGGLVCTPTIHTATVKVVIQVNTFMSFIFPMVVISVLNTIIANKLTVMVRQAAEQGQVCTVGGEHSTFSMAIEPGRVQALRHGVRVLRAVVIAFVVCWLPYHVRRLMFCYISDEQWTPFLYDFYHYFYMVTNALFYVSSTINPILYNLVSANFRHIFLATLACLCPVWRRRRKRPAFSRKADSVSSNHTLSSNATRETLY

| IC50 [1] [nM] | IC50 [2] [nM] | Binder |
| --- | --- | --- |
| 63 | – | KPRRPYIL (not fully specified; also: DOTA on the peptide, linkers and non-natural residues not given here) [Ec] |
| – | 52 | [dS][dS][dS]KPRRPYIL (not fully specified; also: N-terminal DOTA, X linker Gly-(D)Ser3, N-Me-Arg, Dmt, Tle building blocks, places not given here, matched control of 2f; also called compound 3b) [3b] |
| – | 49 | KPRRPYIL (not fully specified; also: N-terminal DOTA, X linker PEG3, Y linker β-Ala, N-Me-Arg, Dmt, Tle building blocks, places not given here, matched control of 2c; also called compound 3a) [3a] |
